Experimental data: the nanobody polyreactivity screen of Harvey et al. (2022)

Experiment: yeast display, Sf9 membrane polyspecificity reagent, FACS + sequencing; frameworks hold sequencing errors
Procedure, shortened: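 Nanobodies came from a synthetic yeast display library in Saccharomyces cerevisiae BJ5465, induced with galactose for 36–48 hours and stained for 1 hour at 4 °C with 10% biotinylated, detergent-solubilized Sf9 membrane reagent. Cells were enriched on streptavidin microbeads and then FACS-sorted, with low and high (top ~1%) gates set on anti-HA fluorescence for expression and streptavidin fluorescence for reagent binding. Each polyreactivity label reflects the gate a clone came from. Genes were amplified by colony PCR, sequenced by MiSeq 2 × 250 and filtered by CDR length.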

| Sequence | polyreactivity (PSR sort gate) |
| --- | --- |
| QVQLVESGGGLVQAGGSLRLSCAASGLTFQYYAMGWYRQAPGKERELVATISGRAGRTYYADSVKGRFTISRDNAKNTVYLQMNSLKPEDTAVYYCAAEVDYSLYTWYEYYYWGQGTQVTVSS | high polyreactivity |
| QVQLVESGGGLVQAGGSLRLSCAASGLTFRANDMGWYRQAPGKERELVAGITESGDSTYYADSVKGRFTISRDNAKNTVYLQMNSLKPEDTAVYYCAAGSYYWYWYRVGEWYAYEYWGQGTQVTVSS | low polyreactivity |
| QVQLVESGGGLVQAGGSLRLSCAASGLTFRAYVMGWYRQAPWKERELVAAISVSGGSTYYADSVKGRFTISRDNAKNKVYLQLNSLKPEDTAVYYFAAAYSSSKSSGNYYYWGLGTQVTVSS | high polyreactivity |
| QVQLVESGGGLVQAGGSLRLSCAASGLTFRFYTMGWYRQAPGKERELVAAISTSGGSTYYADSVKGRFTISRDNAKNTVYLQMNSLKPEDTAVYYCNAQVWFYYFQSGYDYWGQGTQVTVSS | low polyreactivity |
| QVQLVESGGGLVQAGGSLRLSCAASGLTFRIYAMGWYRQAPGKERELVAAISWNGGSTYYADSVKGRFTISRDNAMNTVYLQMNSLKPEDTAVYYFNADPSDRRYPHTWTKMGYWGQGTQVTVSS | low polyreactivity |
| QVQLVESGGGLVQAGGSLRLSCAASGLTFRKYAMGWYRQAPGKERELVAAITRGGSTNYADSVKGRFTISRDNAKNTVYLQMNSLKPEDTAVYYCAAQYTYRFPYPGYATTHDYWGQGTQVTVSS | high polyreactivity |
| QVQLVESGGGLVQAGGSLRLSCAASGLTFRKYAMGWYRQAPGKERELVAGISSGGSTYYADSVKGRFTISRDNAKNTVYLQMNSLKPEDTAVYYCAAKALRTMYYWGQGTQVTVSS | high polyreactivity |
| QVQLVESGGGLVQAGGSLRLSCAASGLTFRKYVMGWYRQAPGKERELVAAISGGGGSTYYADSVKGRFTISRDNAKNTVYLQMNSLKPEDTAVYYCAAVIYRGYYYWGQGTQVTVSS | high polyreactivity |
| QVQLVESGGGLVQAGGSLRLSCAASGLTFRNYAMGLYRQAPGKERELDAAISRSGGSTYYADSVKGRFTISRDYAKNTVYLHMNSLKPEDTAVYYCATRTYRESTYDYWGQGTQVTVSS | high polyreactivity |
| QVQLVESGGGLVQAGGSLRLSCAASGLTFRNYAMGWYRQAPGKEREVVADISWSGGSTYYADSVKGRFTISRDNAKITVYLQMNSLKPEDTAVYYCAARFHYPGGPRYYYWGQGTQVTVSS | high polyreactivity |
| QVQLVESGGGLVQAGGSLRLSCAASGLTFRRYDMGWNRQAPGKEREFVAAITWSTGSTYYADSVKGRFTISRDNAKNTDYLPMNSLKPEDTAVYYCAARSGYFYRYYKYDYWGQGTQVTVSS | high polyreactivity |
| QVQLVESGGGLVQAGGSLRLSCAASGLTFRVYAMGWYRQAPGKERELVAAITGGGRTYYADSVKGRFTISRDNAKNTVYLQMNSLKPEDTAVYYCAAAGYYVWGQGTQVTVSS | high polyreactivity |
| QVQLVESGGGLVQAGGSLRLSCAASGLTFRWYAMGWYRQAPGKERELVAAISSGGSTNYADSVKGRFTISRDNAKNTVYLQMNSLKPEDTAVDYCNAKGRPWFKYDYWGQGTQVTVSS | high polyreactivity |
| QVQLVESGGGLVQAGGSLRLSCAASGLTFRYYAMGWYRQAPGKERELVAAISSRGASTYYADSVKGRFTISRDNAKNTVYLQMNSLKPEDTAVYYCAVRTYVYHWSFSSLPYDYWGEGTQVTVSS | high polyreactivity |
| QVQLVESGGGLVQAGGSLRLSCAASGLTFRYYAMGWYRQEPGKERELVATITRAGRTNYADSVKGRFTISRDNAKNTVYLQMNSLKPEDTAVYYCNAKQSGKYPRVVGYDYWGQGTQVTVSS | high polyreactivity |
| QVQLVESGGGLVQAGGSLRLSCAASGLTFRYYAMVWYRQAPGKERELVATITRAGRTNYADSVKGRFTISRDNAKNTVYLQMNSLKPEDTAVYYCATKRVLTGFDSWGQGTQVTVSS | high polyreactivity |
| QVQLVESGGGLVQAGGSLRLSCAASGLTFRYYTMGWYRQAPVKERELVAAISRGGSTTYADSVKGRFTISRVNAKNTVYLQMNSLKPEDTAVYYCAVRPGTWSNYYAGGKKYDYWGLGTQVTVSS | high polyreactivity |
| QVQLVESGGGLVQAGGSLRLSCAASGLTFSAYAMGWYRQAPGKERELVAAITSSGGSTYADSVKGRFTISRDNAKNTVYLQMNSLKPEDTAVYYCAARVVRYGYKYYYWGQGTQVTVSS | low polyreactivity |
| QVQLVESGGGLVQAGGSLRLSCAASGLTFSENAMGWYRQAPGKERELVAAISWSGTTTYYADSVKGRFTISRDNAKNTVYLQMNSLKPEDTAVYYCAADTIFYGYWGQGTQVTVSS | low polyreactivity |
| QVQLVESGGGLVQAGGSLRLSCAASGLTFSHYAMGWYRQAPGKERELVAGISSRGGNTYYADSVKGRFTISRDYAKNTVYLQMNSLKPEDTAVFYCNAPKPKRAYDYWGQGSQVTVSS | high polyreactivity |
| QVQLVESGGGLVQAGGSLRLSCAASGLTFSKNARGWYRQSPGKDRELVATISYSSSRTNYADSVKGRFTISRVNAKNPVYLQMNSLKPEDTAVYYCAARVYNGWPTHYDYWGQGTQVTVSS | high polyreactivity |
| QVQLVESGGGLVQAGGSLRLSCAASGLTFSKYVMGWYRQAPGKERELVAGISRSSGSTYYADSVKGRFTISRDNAKNTVYLQMNSLKPEDTAVYYCAARARRKYDYWGQGTQVTVSS | high polyreactivity |

| Sequence | polyreactivity (PSR sort gate) |
| --- | --- |
| QVQLVESGGGLVQAGGSLRLSCAASGLTFSPYAKGWYRQAPGKERELVASITNGGRTYYADSVKGRFTISRDNAKNTVYLQMNSLKPEDTAVYYCNAAYFGWFNTYNYWGQGTQVTVSS | high polyreactivity |
| QVQLVESGGGLVQAGGSLRLSCAASGLTFSPYAMGWYRQAPGKERELVATITIGGSTKYADSVKGRFTISRDNAKNTVYLQMNSLKPEDPAVYYCAVRSGYVTRRYDYWGQGTQVTVSS | low polyreactivity |
| QVQLVESGGGLVQAGGSLRLSCAASGLTFSRNAMGWYRQAPGKERELVAAINWRGGRTYYADSVKGRFIISRDNAKNTVYLQMNSLKPEDTAVYYCAADPANRCMYYWGQGTQVTVSS | high polyreactivity |
| QVQLVESGGGLVQAGGSLRLSCAASGLTFSRNGMGWYRQAAGKERELVAAISTSGDSTDYADSVKGRFTISRDYAKNTVYLQMNSLKPEDTAVYYCNRDFSLVVHYNFDYWGQGTQVTVSS | low polyreactivity |
| QVQLVESGGGLVQAGGSLRLSCAASGLTFSRYAMGWYRQAPGKERELVAAIKGRGGSTYYADSVKGRFTISRDNAKNTVYLQMNSLKPEDTAVYYCAATTRGSYSGNRPAYYWGQCTQVTVSS | high polyreactivity |
| QVQLVESGGGLVQAGGSLRLSCAASGLTFSSYAMGWYRQAPGKERELVAVISRTGGSTYYADSVKGRFTISRDNAKNTVYLQMNSLKPEDTAVYYCAARSYNGWRYDSWGQGTQVTVSS | high polyreactivity |
| QVQLVESGGGLVQAGGSLRLSCAASGLTFSSYTMGWYRQAHGKERELVAAINWNGGDTYYADSVKGRFTISRDNAKNTVYLQMHSLKPEDTAVYYCNADYPYFYRFTAEYDYCGQGTQVTVSS | low polyreactivity |
| QVQLVESGGGLVQAGGSLRLSCAASGLTFSVYAMGWYRQAPGKERELVAAISGSGGSTYYADSVKGRFTISRDNAKNTVYLQMNSLKPEDTAVYYCAARYDVHYDGMDYWGLGTQVTVSS | low polyreactivity |
| QVQLVESGGGLVQAGGSLRLSCAASGLTFSYYAMGWYRPAPGKERELVAAITSSGGNTYYADSVKGRFTISRDYAKNTVYLQMNSLKPEDTAGDSCTARRYLRGYGYGYWGQGTQVTVSS | high polyreactivity |
| QVQLVESGGGLVQAGGSLRLSCAASGLTFSYYAMGWYRQAPGKERELVAAISSSGGSTYYADSVKGRFTISRDYAKNTVYLQMTSLKPEDTAVYYCATAASPVRKRYDYWGQGTQVTVSS | high polyreactivity |
| QVQLVESGGGLVQAGGSLRLSCAASGLTFSYYAMGWYRQAPGKERELVAAISWSGGITYYADSVKGRFTISRDNAKNTVYLQMNSLKPEDTAVYYCAADGYPTLYDYWGQGTQVTVSS | high polyreactivity |
| QVQLVESGGGLVQAGGSLRLSCAASGLTFSYYAMGWYRQAPGKERELVAAITRSGTRTYYADSVKGRFTISRDNAKNTVYLQMNSLKPVDTAVYYCARYLRGDFQQGEHWGQGTQVTVSS | high polyreactivity |
| QVQLVESGGGLVQAGGSLRLSCAASGLTFTFYTMGWYRQAPGKERELVAAISIGGSTYYADSVKGRFTISRDNAKNTVYLQMNSLKQEDTAVYYCAAGYSRYYGHWGYYYWGQGTQVTVSS | high polyreactivity |
| QVQLVESGGGLVQAGGSLRLSCAASGLTFTSYAMGWYRQAPGKERELVAAIDWSGGRTYYADSVKGRFTISRDNAKNTVYLQMNSLKPEDTAVYYCAAYSRNRALRFNYWGQGTQVTVSS | high polyreactivity |
| QVQLVESGGGLVQAGGSLRLSCAASGLTFTYYAMGWNRQAPGKQRELVAAISSSGSDTYYADSVKGRFTISRDNAKNTVYLLMNSLKPEDTAVYYCAAVLTALSPDFEYEYWGQGTQVTVSS | low polyreactivity |
| QVQLVESGGGLVQAGGSLRLSCAASGLTFTYYAMGWYRQAPGKERELVAAITYSGDSKYYADSVKGLFTISRDNAKNTVYLQMNSLKPEDTAVYYCNAEQYLYYILGNYDYWGQGTQVTVSS | low polyreactivity |
| QVQLVESGGGLVQAGGSLRLSCAASGLTFVDNALGWYRQAPGKERELVAAISYNGGSTYYADSVKGRFTISRDNAKNTVYLQMNSLKPEDTAVYYCAADISVGRYGDMDYWGQGTQVTVSS | low polyreactivity |
| QVQLVESGGGLVQAGGSLRLSCAASGLTFVDYAMGWYRQAPGKERELVADYYFQRWFYGLRRLCEGALHNFTRQCQEYRNLQMNSLKPEDTAVYYCNTDGPTVAYSEYYYWGQGTQVTVSS | low polyreactivity |
| QVQLVESGGGLVQAGGSLRLSCAASGLTFVDYTKGWYRQAPGNERELVAAIDWSGGSTYYADSVKGRFTISRDNAKNPVYLQMNSLKPEDTAVYYCNALRRFYSMDDYWGQGTQVTVSS | low polyreactivity |
| QVQLVESGGGLVQAGGSLRLSCAASGLTFVEYAMGWYRQAPGKEREFVAAIRSRGGSTYYADSVKGRFTISRDNAKNTVYLQMNSLKPEDTAVYYCTADGYFWGQGTQVTVSS | low polyreactivity |
| QVQLVESGGGLVQAGGSLRLSCAASGLTFVGYAMGWNRQAPGKERELVAAISGVGTTNYGDSVKGRFTISRDNAKNTVYLQMNSLKPEDTAVYYCAKAPYPVPYGLYDYWGQGTQVTVSS | low polyreactivity |
